Test results taken from IntAct's records for PubMed 15319482.

B1: Protein BRASSINOSTEROID … 1 (Arabidopsis thaliana (Mouse-ear cress)), O22476 (parent)
chain: MKTFSSFFLSVTTLFFFSFFSLSFQASPSQSLYREIHQLISFKDVLPDKNLLPDWSSNKNPCTFDGVTCRDDKVTSIDLSSKPLNVGFSAVSSSLLSLTGLESLFLSNSHINGSVSGFKCSASLTSLDLSRNSLSGPVTTLTSLGSCSGLKFLNVSSNTLDFPGKVSGGLKLNSLEVLDLSANSISGANVVGWVLSDGCGELKHLAISGNKISGDVDVSRCVNLEFLDVSSNNFSTGIPFLGDCSALQHLDISGNKLSGDFSRAISTCTELKLLNISSNQFVGPIPPLPLKSLQYLSLAENKFTGEIPDFLSGACDTLTGLDLSGNHFYGAVPPFFGSCSLLESLALSSNNFSGELPMDTLLKMRGLKVLDLSFNEFSGELPESLTNLSASLLTLDLSSNNFSGPILPNLCQNPKNTLQELYLQNNGFTGKIPPTLSNCSELVSLHLSFNYLSGTIPSSLGSLSKLRDLKLWLNMLEGEIPQELMYVKTLETLILDFNDLTGEIPSGLSNCTNLNWISLSNNRLTGEIPKWIGRLENLAILKLSNNSFSGNIPAELGDCRSLIWLDLNTNLFNGTIPAAMFKQSGKIAANFIAGKRYVYIKNDGMKKECHGAGNLLEFQGIRSEQLNRLSTRNPCNITSRVYGGHTSPTFDNNGSMMFLDMSYNMLSGYIPKEIGSMPYLFILNLGHNDISGSIPDEVGDLRGLNILDLSSNKLDGRIPQAMSALTMLTEIDLSNNNLSGPIPEMGQFETFPPAKFLNNPGLCGYPLPRCDPSNADGYAHHQRSHGRRPASLAGSVAMGLLFSFVCIFGLILVGREMRKRRRKKEAELEMYAEGHGNSGDRTANNTNWKLTGVKEALSINLAAFEKPLRKLTFADLLQATNGFHNDSLIGSGGFGDVYKAILKDGSAVAIKKLIHVSGQGDREFMAEMETIGKIKHRNLVPLLGYCKVGDERLLVYEFMKYGSLEDVLHDPKKAGVKLNWSTRRKIAIGSARGLAFLHHNCSPHIIHRDMKSSNVLLDENLEARVSDFGMARLMSAMDTHLSVSTLAGTPGYVPPEYYQSFRCSTKGDVYSYGVVLLELLTGKRPTDSPDFGDNNLVGWVKQHAKLRISDVFDPELMKEDPALEIELLQHLKVAVACLDDRAWRRPTMVQVMAMFKEIQAGSGIDSQSTIRSIEDGGFSTIEMVDMSIKEVPEGKL
partner: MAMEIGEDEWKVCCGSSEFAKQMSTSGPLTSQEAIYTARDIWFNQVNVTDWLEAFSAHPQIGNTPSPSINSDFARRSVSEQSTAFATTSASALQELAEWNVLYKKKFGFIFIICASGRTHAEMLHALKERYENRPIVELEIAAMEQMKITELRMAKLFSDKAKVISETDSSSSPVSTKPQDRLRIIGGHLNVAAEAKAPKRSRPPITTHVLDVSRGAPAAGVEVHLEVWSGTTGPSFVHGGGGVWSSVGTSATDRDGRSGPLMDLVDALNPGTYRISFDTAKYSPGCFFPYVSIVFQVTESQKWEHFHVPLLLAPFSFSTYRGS

Legend:
tthl_arath TTL, Q9LVM5 [1] = variants of: B1; details: with tthl_arath TTL
tthl_arath TTL, Q9LVM5 [2] = variants of: B1; details: with tthl_arath TTL; remark: listed apart in the source

effect of a mutation on the interaction (tthl_arath TTL, Q9LVM5 [1]) | effect of a mutation on the interaction (tthl_arath TTL, Q9LVM5 [2]) | Variant
decreasing interaction | disrupting interaction | G1048D
decreasing interaction | disrupting interaction | E1078K
– | disrupting interaction | A1031T
